Here are results for one protein from PMC4245977 (Biochemistry, 2014).

The series concerns the molecule itself. The series can be described thus: crystal structure.

B1: AACC (C136A/C141A) double mutant of the Tn501 MerA (mercuric reductase) catalytic core (domain or fragment, Pseudomonas aeruginosa (Tn501))
chain: EPPVQVAVIGSGGAAMAAALKAVEQGAQVTLIERGTIGGTAVNVGAVPSKIMIRAAHIAHLRRESPFDGGIAATVPTIDRSKLLAQQQARVDELRHAKYEGILGGNPAITVVHGEARFKDDQSLTVRLNEGGERVVMFDRCLVATGASPAVPPIPGLKESPYWTSTEALASDTIPERLAVIGSSVVALELAQAFARLGSKVTVLARNTLFFREDPAIGEAVTAAFRAEGIEVLEHTQASQVAHMDGEFVLTTTHGELRADKLLVATGRTPNTRSLALDAAGVTVNAQGAIVIDQGMRTSNPNIYAAGDCTDQPQFVYVAAAAGTRAAINMTGGDAALDLTAMPAVVFTDPQVATVGYSEAEAHHDGIETDSRTLTLDNVPRALANFDTRGFIKLVIEEGSHRLIGVQAVAPEAGELIQTAALAIRNRMTVQELADQLFPYLTMVEGLKLAAQTFNKDVKQLSCCAG
B1: the binding result is given as “binds”.
